From paper PMC3505484

Molecular target: IL-1 receptor on human melanoma A375.S2 cells (human (endogenous in A375.S2)) (UniProt P14778)
Chain of UniProt P14778 (P14778 18-569): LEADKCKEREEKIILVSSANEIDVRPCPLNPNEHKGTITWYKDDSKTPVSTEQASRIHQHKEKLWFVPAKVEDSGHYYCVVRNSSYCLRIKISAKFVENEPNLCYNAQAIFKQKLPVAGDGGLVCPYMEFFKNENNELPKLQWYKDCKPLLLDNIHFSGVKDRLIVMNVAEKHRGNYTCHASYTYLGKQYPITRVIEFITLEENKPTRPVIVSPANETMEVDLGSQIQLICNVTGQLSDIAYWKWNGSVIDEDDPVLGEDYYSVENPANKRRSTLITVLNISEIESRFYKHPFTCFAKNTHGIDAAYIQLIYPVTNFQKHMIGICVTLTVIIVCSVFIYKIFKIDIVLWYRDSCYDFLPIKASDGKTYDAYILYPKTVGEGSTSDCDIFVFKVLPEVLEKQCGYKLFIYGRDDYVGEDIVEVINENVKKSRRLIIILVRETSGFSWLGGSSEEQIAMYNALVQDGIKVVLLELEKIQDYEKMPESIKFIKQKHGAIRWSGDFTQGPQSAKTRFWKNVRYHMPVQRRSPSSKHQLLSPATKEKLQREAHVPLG

Question: What does the source list for “IL-1ra-HSA fusion protein (human serum albumin fused to the carboxyl terminal of human IL-1ra) (from UniProt P02768 25-609)”?
Answer: input giving the 50% level of inhibition of the cytolytic activity of 1 ng/ml (0.06 nM) IL-1β to A375.S2 cells (MTT, 72 h); the pair blocked is IL-1β and the IL-1 receptor: 2 nM; input giving the 100% level of inhibition of the cytolytic activity of 1 ng/ml (0.06 nM) IL-1β to A375.S2 cells (MTT, 72 h); the pair blocked is IL-1β and the IL-1 receptor: 32 nM
